In US20240247080A1, “GLP1/GIP/NPY2 RECEPTOR TRIPLE AGONISTS” (Boehringer Ingelheim International GmbH, priority 2022, published 2024):
Residue numbers refer to the chain shown, from its start. Starred links: 1 amine or outer side, 2 acyl side, 3 side chain; linkers in the order of their positions; H or OH if unused. Non-standard residues stand in square brackets, D forms with d. Groups on a side chain read outwards from the residue. No end group written: not given here. *: point of attachment. C18 diacid = O=C(O)CCCCCCCCCCCCCCCCC(=O)*; γGlu = O=C(O)[C@H](CCC(=O)[*:2])N[*:1]; εLys = N[C@@H](CCCCN[*:1])C(=O)[*:2]; AEEA = NCCOCCOCC(=O)O; Aib = CC(C)(N)C(=O)O

T1: human GIP receptor (human, UniProt P48546 22-466)
T1 sequence (looked up): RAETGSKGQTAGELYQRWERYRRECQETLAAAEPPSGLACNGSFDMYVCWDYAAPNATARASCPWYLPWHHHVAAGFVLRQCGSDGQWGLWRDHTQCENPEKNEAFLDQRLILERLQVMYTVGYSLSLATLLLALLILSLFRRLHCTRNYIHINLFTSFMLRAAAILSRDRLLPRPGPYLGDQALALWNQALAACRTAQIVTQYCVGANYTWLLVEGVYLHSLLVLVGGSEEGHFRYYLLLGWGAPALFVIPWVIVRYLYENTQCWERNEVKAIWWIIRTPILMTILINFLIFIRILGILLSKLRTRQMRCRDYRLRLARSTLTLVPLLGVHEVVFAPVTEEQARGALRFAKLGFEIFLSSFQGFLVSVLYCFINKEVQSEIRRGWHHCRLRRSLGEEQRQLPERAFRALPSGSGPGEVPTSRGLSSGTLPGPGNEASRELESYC

T2: human neuropeptide Y2 receptor (human, UniProt P49146 1-381)
T2 sequence (looked up): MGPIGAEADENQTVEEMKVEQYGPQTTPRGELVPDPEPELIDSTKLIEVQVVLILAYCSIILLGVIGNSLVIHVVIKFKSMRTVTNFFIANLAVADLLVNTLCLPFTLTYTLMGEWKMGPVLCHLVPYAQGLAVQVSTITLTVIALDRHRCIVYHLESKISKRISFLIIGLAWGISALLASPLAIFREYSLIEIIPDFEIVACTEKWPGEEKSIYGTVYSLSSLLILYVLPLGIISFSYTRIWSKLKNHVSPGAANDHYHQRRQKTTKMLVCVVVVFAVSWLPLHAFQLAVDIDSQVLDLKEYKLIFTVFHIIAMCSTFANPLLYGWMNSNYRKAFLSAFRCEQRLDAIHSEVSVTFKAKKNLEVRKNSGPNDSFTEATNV

B1: Compound 149 (peptide)
peptide: YXEGTFTSDYSIXLEKQAQXAFVQWLIKGGPEEGASLRHYYNWLTRQRY
modifications: Aib at 2, 13, 20; K28 side chain: C18DA-gGlu-gGlu-gGlu-gGlu-gGlu-gGlu-eLys; C-terminal NH2
B2: Compound 153 (peptide)
peptide: B1 peptide with A21E, E32S
modifications: Aib at 2, 13, 20; K28 side chain: C18DA-gGlu-gGlu-gGlu-gGlu-gGlu-gGlu-eLys; C-terminal NH2

Experiments:
Assay in all cases: cell-based or functional assay
human GIP receptor = biological target: T1, human GIP receptor
[1] = biological target: T2, human neuropeptide Y2 receptor
human GLP-1 receptor = human GLP-1 receptor (human, UniProt P43220 24-463)

Binder	EC50 CreLuc hGIPR 0.5% hP (human GIP receptor) [nM]	EC50 CreLuc hGIPR 100% hP (human GIP receptor) [nM]	EC50 CreLuc hNPY2R 0.5% hP [1] [nM]	EC50 CreLuc hNPY2R 100% hP [1] [nM]	EC50 CreLuc hGLP1R 0.5% hP (human GLP-1 receptor) [nM]	EC50 CreLuc hGLP1R 100% hP (human GLP-1 receptor) [nM]
Y[Aib]EGTFTSDYSI[Aib]LEKQAQ[Aib]AFVEWLIK([AEEA-AEEA-γGlu-γGlu-γGlu-γGlu-C18 diacid])GGPSSPASLRHYYNWLTRQRY-NH2 [Compound 158]	0.11	0.84	15.8	39.9	0.09	3.25
Y[Aib]EGTFTSDYSI[Aib]LEKQAQ[Aib]AFVQWLIK([AEEA-AEEA-γGlu-γGlu-γGlu-C18 diacid])GGPEEGASLRHYYNWLTRQRY-NH2 [Compound 144]	1.15	0.79	15.8	48.7	0.16	5.59
Y[Aib]EGTFTSDYSI[Aib]LEKQAE[Aib]AFVQWLIK([AEEA-AEEA-γGlu-γGlu-γGlu-γGlu-C18 diacid])GGPSEGASLRHYYNWLTRQRY-NH2 [Compound 156]	0.16	0.72	13.5	26.5	0.18	6.5
Y[Aib]EGTFTSDYSI[Aib]LEKQAQ[Aib]AFVQWLIK([εLys-Glu-Glu-Glu-Glu-Glu-C18 diacid])GGPEEGASLRHYYNWLTRQRY-NH2 [Compound 155]	0.14	1.43	17	95	0.15	7.18
Y[Aib]EGTFTSDYSI[Aib]LEKQAQ[Aib]AFVQWLIKGGPSSGASLRHYYNWLTRQRY-NH2 (not fully specified (residue 28)) [Compound 147]	0.19	1.6	23.3	65.6	0.08	1.54
Y[Aib]EGTFTSDYSI[Aib]LEKQAQ[Aib]EFVEWLIK([εLys-γGlu-γGlu-γGlu-γGlu-γGlu-C18 diacid])GGPSSGASLRHYYNWLTRQRY-NH2 [Compound 159]	0.35	0.91	13.8	34.6	0.19	5.17
Y[Aib]EGTFTSDYSI[Aib]LEKQAQ[Aib]EFVQWLIK([εLys-γGlu-γGlu-γGlu-γGlu-γGlu-C18 diacid])GGPSEGASLRHYYNWLTRQRY-NH2 [Compound 154]	0.4	1.07	10.7	21.6	0.26	6.65
B1	0.58	0.79	18.6	40.3	0.15	4.76
B2	0.22	1.21	18.9	58.5	0.25	6.12
Y[Aib]EGTFTSDYSI[Aib]LEKQAQ[Aib]AFVQWLIK([εLys-γGlu-γGlu-γGlu-γGlu-γGlu-C18 diacid])GGPSEPASLRHYYNWLTRQRY-NH2 [Compound 148]	0.07	0.47	11	21.1	0.08	1.46
Y[Aib]EGTFTSDYSI[Aib]LEKQAQ[Aib]AFVQWLIK([AEEA-AEEA-γGlu-γGlu-γGlu-γGlu-C18 diacid])GGPEEGASLRHYYNWLTRQRY-NH2 [Compound 146]	0.77	0.73	14	38.8	0.14	4.27
Y[Aib]EGTFTSDYSI[Aib]LEKQAQ[Aib]EFVQWLIK([AEEA-AEEA-Glu-Glu-Glu-C18 diacid])GGPSEGASLRHYYNWLTRQRY-NH2 [Compound 157]	0.38	1.58	23.6	86.9	0.35	9.05
Y[Aib]EGTFTSDYSI[Aib]LEKQAQ[Aib]EFVEWLIK([AEEA-AEEA-γGlu-γGlu-γGlu-γGlu-C18 diacid])GGPSSGASLRHYYNWLTRQRY-NH2 [Compound 145]	0.28	1.23	11.9	31.8	0.31	7.29
Y[Aib]EGTFTSDYSI[Aib]LEKQAQ[Aib]EFVQWLIK([γGlu-γGlu-γGlu-γGlu-γGlu-γGlu-C18 diacid])GGPSEGASLRHYYNWLTRQRY-NH2 [Compound 151]	0.91	1.28	18.9	42.3	0.26	4.39
Y[Aib]EGTFTSDYSI[Aib]LEKQAQ[Aib]AFVEWLIK([εLys-γGlu-γGlu-γGlu-γGlu-γGlu-C18 diacid])GGPESGASLRHYYNWLTRQRY-NH2 [Compound 152]	0.4	0.96	12.6	39.1	0.13	4.24
Y[Aib]EGTFTSDYSI[Aib]LEKQAQ[Aib]AFVQWLIK([εLys-γGlu-γGlu-γGlu-γGlu-γGlu-C18 diacid])GGPEEGASLRHYYNWLTRQRY-NH2 [Compound 143]	0.22	0.67	13.1	42.2	0.13	4.24
Y[Aib]EGTFTSDYSI[Aib]LEKQAE[Aib]AFVEWLIK([AEEA-AEEA-γGlu-γGlu-γGlu-γGlu-C18 diacid])GGPSSGASLRHYYNWLTRQRY-NH2 [Compound 150]	0.27	1.65	16.7	62.7	0.31	8.35
